Test system: Escherichia coli TOP10
Experiment: shrunken log2 fold change of peptide-encoding DNA abundance (4.5 h post-induction vs induction); higher = less antimicrobial activity (less host growth inhibition)
Details: time post-induction: 4.5 h; library: site-saturation at positions 5, 18, 19, 20
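Further: peptides expressed intracellularly from a pBAD plasmid library in pooled LB shake-flask culture, induced with 0.3% L-arabinose, DNA abundance read by NGS, three biological replicates, DESeq2 with apeglm shrinkage.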

| Sequence | shrunken log2 fold change |
| --- | --- |
| RRIRMRPPRLPRPRPRPQWTPRP | 0.0242 |
| RRIRKRPPRLPRPRPRPTAQPRP | 1.88 |
| RRIRPRPPRLPRPRPRPQLMPRP | -0.0192 |
| RRIRHRPPRLPRPRPRPCCRPRP | -0.276 |
| RRIRHRPPRLPRPRPRPYVTPRP | -0.182 |
| RRIRERPPRLPRPRPRPFFIPRP | -0.354 |
| RRIRCRPPRLPRPRPRPISVPRP | 0.0666 |
| RRIRKRPPRLPRPRPRPIELPRP | -0.025 |
| RRIRKRPPRLPRPRPRPSLIPRP | -0.0338 |
| RRIRFRPPRLPRPRPRPAQNPRP | 0.348 |
| RRIRIRPPRLPRPRPRPSSVPRP | -1.03 |
| RRIRERPPRLPRPRPRPPMWPRP | 0.245 |
| RRIRGRPPRLPRPRPRPWPAPRP | 0.763 |
| RRIRYRPPRLPRPRPRPLALPRP | -0.816 |
| RRIRLRPPRLPRPRPRPWNNPRP | -0.225 |
| RRIRERPPRLPRPRPRPPQLPRP | 0.194 |
| RRIRTRPPRLPRPRPRPIKIPRP | -0.426 |
| RRIRSRPPRLPRPRPRPLQGPRP | -0.0686 |
| RRIRHRPPRLPRPRPRPQYGPRP | -0.0192 |
| RRIRYRPPRLPRPRPRPRMAPRP | 0.0395 |
| RRIRERPPRLPRPRPRPKPFPRP | -0.37 |
| RRIRQRPPRLPRPRPRPFENPRP | -0.00804 |
| RRIRKRPPRLPRPRPRPNPFPRP | 1.91 |
| RRIRSRPPRLPRPRPRPNQAPRP | -0.169 |
| RRIRARPPRLPRPRPRPNCSPRP | 0.179 |

| Sequence | shrunken log2 fold change |
| --- | --- |
| RRIRIRPPRLPRPRPRPFAGPRP | 0.0391 |
| RRIRHRPPRLPRPRPRPCWHPRP | -0.112 |
| RRIRVRPPRLPRPRPRPDVCPRP | 0.0951 |
| RRIRERPPRLPRPRPRPNGTPRP | -0.0811 |
| RRIRYRPPRLPRPRPRPFIKPRP | -0.263 |
| RRIRFRPPRLPRPRPRPWFLPRP | -1.15 |
| RRIRMRPPRLPRPRPRPASTPRP | 0.323 |
| RRIRMRPPRLPRPRPRPNKTPRP | -0.0156 |
| RRIRRRPPRLPRPRPRPSPLPRP | 0.479 |
| RRIRTRPPRLPRPRPRPHISPRP | -0.0286 |
| RRIRFRPPRLPRPRPRPEIYPRP | 0.0026 |
| RRIRARPPRLPRPRPRPGEFPRP | 0.388 |
| RRIRTRPPRLPRPRPRPWYAPRP | -0.521 |
| RRIRPRPPRLPRPRPRPIKAPRP | -0.00863 |
| RRIRVRPPRLPRPRPRPVLHPRP | -0.243 |
| RRIRSRPPRLPRPRPRPPQLPRP | 0.209 |
| RRIRRRPPRLPRPRPRPHFDPRP | 0.216 |
| RRIRNRPPRLPRPRPRPDYTPRP | 0.115 |
| RRIRPRPPRLPRPRPRPGGQPRP | -0.0466 |
| RRIRTRPPRLPRPRPRPPKNPRP | -0.0268 |
| RRIRSRPPRLPRPRPRPCTPPRP | -0.312 |
| RRIRPRPPRLPRPRPRPYSHPRP | -1.42 |
| RRIRVRPPRLPRPRPRPYGFPRP | -0.222 |
| RRIRRRPPRLPRPRPRPFIIPRP | -0.323 |
| RRIRHRPPRLPRPRPRPLLTPRP | -0.338 |

| Sequence | shrunken log2 fold change |
| --- | --- |
| RRIRFRPPRLPRPRPRPMNFPRP | -0.283 |
| RRIRVRPPRLPRPRPRPPQWPRP | 0.353 |
| RRIRIRPPRLPRPRPRPCECPRP | 0.0112 |
| RRIRFRPPRLPRPRPRPPHLPRP | -0.0216 |
| RRIRDRPPRLPRPRPRPIHLPRP | -0.0597 |
| RRIRVRPPRLPRPRPRPFLVPRP | -0.527 |
| RRIRFRPPRLPRPRPRPKKPPRP | -0.0169 |
| RRIRRRPPRLPRPRPRPPCCPRP | 0.623 |
| RRIRKRPPRLPRPRPRPGFFPRP | 0.786 |
| RRIRERPPRLPRPRPRPIKMPRP | -0.347 |
| RRIRERPPRLPRPRPRPRPDPRP | 0.205 |
| RRIRRRPPRLPRPRPRPSIDPRP | -0.107 |
| RRIRQRPPRLPRPRPRPGTSPRP | -0.523 |
| RRIRERPPRLPRPRPRPKRIPRP | 0.103 |
| RRIRERPPRLPRPRPRPPCNPRP | -0.392 |
| RRIRARPPRLPRPRPRPFVWPRP | 0.204 |
| RRIRVRPPRLPRPRPRPLHRPRP | -0.0175 |
| RRIRGRPPRLPRPRPRPWFQPRP | 0.0619 |
| RRIRMRPPRLPRPRPRPRWQPRP | 0.146 |
| RRIRTRPPRLPRPRPRPYMNPRP | -0.895 |
| RRIRWRPPRLPRPRPRPSPQPRP | 0.266 |
| RRIRERPPRLPRPRPRPWMWPRP | 0.0673 |
| RRIRMRPPRLPRPRPRPFAEPRP | 0.625 |
| RRIRGRPPRLPRPRPRPFMFPRP | 1.16 |
| RRIRQRPPRLPRPRPRPNLFPRP | -0.0199 |

| Sequence | shrunken log2 fold change |
| --- | --- |
| RRIRPRPPRLPRPRPRPLCAPRP | 0.119 |
| RRIRMRPPRLPRPRPRPYAGPRP | -0.0412 |
| RRIRKRPPRLPRPRPRPDEFPRP | 1.24 |
| RRIRQRPPRLPRPRPRPRIFPRP | -0.131 |
| RRIRNRPPRLPRPRPRPANNPRP | -0.0944 |
| RRIRIRPPRLPRPRPRPNPCPRP | -0.159 |
| RRIRIRPPRLPRPRPRPSLCPRP | -0.242 |
| RRIRLRPPRLPRPRPRPEANPRP | 0.075 |
| RRIRQRPPRLPRPRPRPVPRPRP | 0.829 |
| RRIRTRPPRLPRPRPRPMYAPRP | -0.121 |
| RRIRWRPPRLPRPRPRPTSEPRP | 0.116 |
| RRIRPRPPRLPRPRPRPEFRPRP | -0.00133 |
| RRIRPRPPRLPRPRPRPTDMPRP | 0.157 |
| RRIRLRPPRLPRPRPRPGWLPRP | 0.0878 |
| RRIRWRPPRLPRPRPRPPVWPRP | 0.478 |
| RRIRHRPPRLPRPRPRPEIPPRP | -0.111 |
| RRIRLRPPRLPRPRPRPRGKPRP | 0.0746 |
| RRIRARPPRLPRPRPRPEIFPRP | 0.273 |
| RRIRYRPPRLPRPRPRPYSKPRP | -0.124 |
| RRIRRRPPRLPRPRPRPDWKPRP | 0.192 |
| RRIRIRPPRLPRPRPRPYIPPRP | -0.92 |
| RRIRWRPPRLPRPRPRPWMAPRP | 0.0321 |
| RRIRWRPPRLPRPRPRPVAHPRP | 0.00472 |
| RRIRDRPPRLPRPRPRPVYHPRP | -0.0857 |
| RRIRSRPPRLPRPRPRPHEFPRP | -0.315 |

| Sequence | shrunken log2 fold change |
| --- | --- |
| RRIRGRPPRLPRPRPRPFSGPRP | -0.325 |
| RRIRQRPPRLPRPRPRPCIAPRP | -0.0382 |
| RRIRFRPPRLPRPRPRPPSQPRP | -0.0751 |
| RRIRCRPPRLPRPRPRPSTMPRP | -0.509 |
| RRIRRRPPRLPRPRPRPRHMPRP | -0.0552 |
| RRIRSRPPRLPRPRPRPRPVPRP | 1.01 |
| RRIRIRPPRLPRPRPRPVQHPRP | -0.38 |
| RRIRWRPPRLPRPRPRPPEIPRP | -0.0659 |
| RRIRDRPPRLPRPRPRPMVPPRP | 0.0555 |
| RRIRFRPPRLPRPRPRPWDQPRP | 0.0971 |
| RRIRARPPRLPRPRPRPNQLPRP | -0.0527 |
| RRIRERPPRLPRPRPRPNTGPRP | -0.385 |
| RRIRIRPPRLPRPRPRPMNVPRP | -0.122 |
| RRIRMRPPRLPRPRPRPVGKPRP | 0.216 |
| RRIRYRPPRLPRPRPRPYIEPRP | -0.469 |
| RRIRCRPPRLPRPRPRPVHWPRP | -0.21 |
| RRIRNRPPRLPRPRPRPVQTPRP | 0.12 |
| RRIRDRPPRLPRPRPRPSNFPRP | -0.0206 |
| RRIRHRPPRLPRPRPRPPTYPRP | -0.0835 |
| RRIRGRPPRLPRPRPRPAFMPRP | 0.585 |
| RRIRHRPPRLPRPRPRPSQLPRP | -0.00148 |
| RRIRMRPPRLPRPRPRPQHGPRP | 0.0121 |
| RRIRKRPPRLPRPRPRPGVIPRP | 0.251 |
| RRIRPRPPRLPRPRPRPVVCPRP | 0.53 |
| RRIRNRPPRLPRPRPRPFRAPRP | -0.00309 |

| Sequence | shrunken log2 fold change |
| --- | --- |
| RRIRARPPRLPRPRPRPAVDPRP | 0.289 |
| RRIRTRPPRLPRPRPRPQYGPRP | -0.082 |
| RRIRTRPPRLPRPRPRPKNLPRP | -0.143 |
| RRIRLRPPRLPRPRPRPPHPPRP | 0.404 |
| RRIRKRPPRLPRPRPRPGFTPRP | 0.0173 |
| RRIRARPPRLPRPRPRPTEQPRP | 0.184 |
| RRIRWRPPRLPRPRPRPVSTPRP | 0.138 |
| RRIRIRPPRLPRPRPRPNVVPRP | -0.508 |
| RRIRFRPPRLPRPRPRPYHTPRP | -0.0117 |
| RRIRERPPRLPRPRPRPWILPRP | 0.0494 |
| RRIRRRPPRLPRPRPRPVIYPRP | 0.0526 |
| RRIRFRPPRLPRPRPRPPVYPRP | -0.124 |
| RRIRFRPPRLPRPRPRPPDSPRP | 0.0539 |
| RRIRARPPRLPRPRPRPDGEPRP | 0.209 |
| RRIRDRPPRLPRPRPRPVQAPRP | 0.0233 |
| RRIRKRPPRLPRPRPRPYIRPRP | -0.018 |
| RRIRYRPPRLPRPRPRPKQSPRP | -0.156 |
| RRIRLRPPRLPRPRPRPCTTPRP | 0.0144 |
| RRIRVRPPRLPRPRPRPLVTPRP | -0.348 |
| RRIRSRPPRLPRPRPRPGFQPRP | -0.114 |
| RRIRPRPPRLPRPRPRPPIHPRP | -0.039 |
| RRIRHRPPRLPRPRPRPDYWPRP | -0.187 |
| RRIRGRPPRLPRPRPRPQEKPRP | 0.0562 |
| RRIRTRPPRLPRPRPRPTTHPRP | 0.05 |
| RRIRKRPPRLPRPRPRPINDPRP | -0.48 |

Source: the supplement of paper PMC9112550, “Optimization of the antimicrobial peptide Bac7 by deep mutational scanning” (BMC Biology, 2022)
